Columns and labels:
[1] = target: cHSP27 (isolated alpha-crystallin domain of HSP27) (human) (UniProt P04792); assay: 15N CPMG relaxation dispersion NMR; earlier two-state fit of the CPMG RD data, as told in the first response to reviewers; koff = kex(1-pB), kon = kex pB/[L]free
[2] = target: cHSP27 (isolated alpha-crystallin domain of HSP27) (human) (UniProt P04792); assay: 15N CPMG relaxation dispersion NMR; 2H,15N-cHSP27 1.5 mM with 80 µM WT or 200 µM P182L peptide, 25 °C, 11.7 and 14.1 T; naive two-state fit (delta R2 = 0), kon and koff from pB and kex; apparent
[3] = target: cHSP27 (isolated alpha-crystallin domain of HSP27) (human) (UniProt P04792); assay: NMR titration; 2D 1H-15N HSQC titration of 15N-cHSP27 (oxidised, disulfide-linked dimer) with unlabelled peptide, 25 °C, 30 mM sodium phosphate, 2 mM EDTA, pH 7; two-state 2D lineshape fit with TITAN on fast- and slow-exchange residues; apparent
[4] = target: cHSP27 (isolated alpha-crystallin domain of HSP27) (human) (UniProt P04792); assay: 15N CPMG relaxation dispersion NMR; same data as a2; pB fixed at the value expected from the titration Kd (4.9% WT, 7.2% P182L) and delta R2 allowed to be non-zero
[5] = target: cHSP27, isolated alpha-crystallin domain (ACD) of HSP27, oxidized disulfide-linked dimer (human) (UniProt P04792); assay: NMR titration; same HSQC titration, 25 C; 2D lineshape analysis with TITAN, fast- and slow-exchange residues fitted globally
[6] = target: cHSP27, isolated alpha-crystallin domain (ACD) of HSP27, oxidized disulfide-linked dimer (human) (UniProt P04792); assay: NMR titration; 2D 1H-15N HSQC of 15N-cHSP27 (oxidized dimer) with unlabeled peptide, 25 C, 30 mM sodium phosphate, 2 mM EDTA, pH 7; global fit of CSPs of fast-exchange resonances to a two-state model (equation 2)
[7] = target: cHSP27, isolated alpha-crystallin domain (ACD) of HSP27, oxidized disulfide-linked dimer (human) (UniProt P04792); assay: NMR 15N CPMG relaxation dispersion; 2H,15N-cHSP27 (oxidized dimer) 1.5 mM with 80 uM WT peptide or 200 uM P182L peptide, 25 C, 500 and 600 MHz; naive two-state fit
[8] = target: cHSP27 (isolated alpha-crystallin domain of HSP27) (human) (UniProt P04792); assay: NMR titration; earlier TITAN lineshape fit of the HSQC titration, as told in the first response to reviewers

WT peptide (C-terminal IxI/V peptide of HSP27)
koff [1]: 759 s⁻¹ | kon [1]: 300000 M⁻¹ s⁻¹ | kon [2]: 290000 M⁻¹ s⁻¹ | koff [3]: 207 s⁻¹ | kon [3]: 1.6e+06 M⁻¹ s⁻¹ | koff [4]: 346 s⁻¹ | kon [4]: 2.8e+06 M⁻¹ s⁻¹

WT peptide comprising the IxI/V (IPV) motif of the HSP27 C-terminal region
Kd [5]: 132 µM | Kd [6]: 124 µM | Kd [7]: 1760 µM | koff [7]: 515 s⁻¹ | pB (percent of cHSP27 bound, by CPMG RD) [7]: 2.4%

P182L peptide comprising the mutated IxI/V (ILV) motif of the HSP27 C-terminal region
Kd [5]: 1280 µM | Kd [6]: 1030 µM | Kd [7]: 8370 µM | koff [7]: 610 s⁻¹ | pB (percent of cHSP27 bound, by CPMG RD) [7]: 2%

P182L peptide (C-terminal IxI/V peptide of HSP27 with the CMT mutation P182L)
koff [1]: 840 s⁻¹ | kon [1]: 83000 M⁻¹ s⁻¹ | koff [8]: 774 s⁻¹ | kon [2]: 73000 M⁻¹ s⁻¹ | koff [3]: 771 s⁻¹ | kon [3]: 600000 M⁻¹ s⁻¹ | koff [4]: 547 s⁻¹ | kon [4]: 500000 M⁻¹ s⁻¹

— article PMC8047445
